Target: ACSL1 (UniProt P41216)
Experiment: GST-TBK1 binding to bead-bound flag-ACSL1
Settings: reference: ΔC (1-657) wild type; sites S172

In the case of “mouse TBK1 (mTBK1, GST-TBK1) C-terminal truncated, 1-657 (from UniProt Q9WUN2) ΔC (1-657) S172A”, the “binding against the reference” value is reported as “stronger”.
